From IntAct's records for PubMed 22921828

B1: "Secreted effector protein EspF(U)" (Escherichia coli O157:H7), P0DJ88 (parent)
chain: MINNVSSLFPTVNRNITAVYKKSSFSVSPQKITLNPVKISSPFSPSSSSISATTLFRAPNAHSASFHRQSTAESSLHQQLPNVRQRLIQHLAEHGIKPARSMAEHIPPAPNWPAPPPPVQNEQSRPLPDVAQRLVQHLAEHGIQPARNMAEHIPPAPNWPAPPLPVQNEQSRPLPDVAQRLVQHLAEHGIQPARSMAEHIPPAPNWPAPPPPVQNEQSRPLPDVAQRLMQHLAEHGIQPARNMAEHIPPAPNWPAPTPPVQNEQSRPLPDVAQRLMQHLAEHGIQPARNMAEHIPPAPNWPAPTPPVQNEQSRPLPDVAQRLMQHLAEHGINTSKRS
partner: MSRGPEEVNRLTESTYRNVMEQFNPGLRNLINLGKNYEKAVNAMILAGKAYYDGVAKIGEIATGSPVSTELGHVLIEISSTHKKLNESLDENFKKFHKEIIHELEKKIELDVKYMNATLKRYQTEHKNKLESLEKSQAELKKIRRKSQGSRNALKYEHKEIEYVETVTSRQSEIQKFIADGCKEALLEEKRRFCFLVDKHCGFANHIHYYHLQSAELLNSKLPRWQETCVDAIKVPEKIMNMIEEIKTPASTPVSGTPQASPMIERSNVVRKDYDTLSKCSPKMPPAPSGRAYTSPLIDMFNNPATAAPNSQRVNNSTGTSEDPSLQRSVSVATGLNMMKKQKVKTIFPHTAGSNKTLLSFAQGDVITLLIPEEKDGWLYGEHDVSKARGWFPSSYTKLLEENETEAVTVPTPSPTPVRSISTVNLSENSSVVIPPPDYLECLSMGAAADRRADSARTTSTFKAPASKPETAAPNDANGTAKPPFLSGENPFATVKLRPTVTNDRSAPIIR
B2: Epidermal growth factor receptor kinase substrate 8 (Homo sapiens), Q12929 (parent)
chain: MNGHISNHPSSFGMYPSQMNGYGSSPTFSQTDREHGSKTSAKALYEQRKNYARDSVSSVSDISQYRVEHLTTFVLDRKDAMITVDDGIRKLKLLDAKGKVWTQDMILQVDDRAVSLIDLESKNELENFPLNTIQHCQAVMHSCSYDSVLALVCKEPTQNKPDLHLFQCDEVKANLISEDIESAISDSKGGKQKRRPDALRMISNADPSIPPPPRAPAPAPPGTVTQVDVRSRVAAWSAWAADQGDFEKPRQYHEQEETPEMMAARIDRDVQILNHILDDIEFFITKLQKAAEAFSELSKRKKNKKGKRKGPGEGVLTLRAKPPPPDEFLDCFQKFKHGFNLLAKLKSHIQNPSAADLVHFLFTPLNMVVQATGGPELASSVLSPLLNKDTIDFLNYTVNGDERQLWMSLGGTWMKARAEWPKEQFIPPYVPRFRNGWEPPMLNFMGATMEQDLYQLAESVANVAEHQRKQEIKRLSTEHSSVSEYHPADGYAFSSNIYTRGSHLDQGEAAVAFKPTSNRHIDRNYEPLKTQPKKYAKSKYDFVARNNSELSVLKDDILEILDDRKQWWKVRNASGDSGFVPNNILDIVRPPESGLGRADPPYTHTIQKQRMEYGPRPADTPPAPSPPPTPAPVPVPLPPSTPAPVPVSKVPANITRQNSSSSDSGGSIVRDSQRHKQLPVDRRKSQMEEVQDELIHRLTIGRSAAQKKFHVPRQNVPVINITYDSTPEDVKTWLQSKGFNPVTVNSLGVLNGAQLFSLNKDELRTVCPEGARVYSQITVQKAALEDSSGSSELQEIMRRRQEKISAAASDSGVESFDEGSSH
partner: B1 partner

Variants of: B1
Conditions: with bi2l1_human BAIAP2L1, Q9UHR4

| Variant | effect of a mutation on the interaction |
| --- | --- |
| W300A | decreasing interaction strength |

Variants of: B1
Conditions: with bi2l1_human BAIAP2L1, Q9UHR4
Remark: another data set of the same source

| Variant | effect of a mutation on the interaction |
| --- | --- |
| W300A | disrupting interaction strength |

Variants of: B2
Conditions: with bi2l1_human BAIAP2L1, Q9UHR4

| Variant | effect of a mutation on the interaction |
| --- | --- |
| A215W | increasing interaction strength |
